Results on one molecule are retold here after US20050181450A1, “Novel inositol 1,4,5-trisphosphate (IP3) receptor-binding protein and an IP3 indicator” (priority 2002, published 2005).

Holding throughout (type): binding
Assay [1] concerns the target T1, type II phosphatidylinositol phosphate kinase α (Homo sapiens, UniProt P48426).
T1 construct: expressed in transfected cells; host or cells: Cos-7
T1 sequence (P48426 1-406): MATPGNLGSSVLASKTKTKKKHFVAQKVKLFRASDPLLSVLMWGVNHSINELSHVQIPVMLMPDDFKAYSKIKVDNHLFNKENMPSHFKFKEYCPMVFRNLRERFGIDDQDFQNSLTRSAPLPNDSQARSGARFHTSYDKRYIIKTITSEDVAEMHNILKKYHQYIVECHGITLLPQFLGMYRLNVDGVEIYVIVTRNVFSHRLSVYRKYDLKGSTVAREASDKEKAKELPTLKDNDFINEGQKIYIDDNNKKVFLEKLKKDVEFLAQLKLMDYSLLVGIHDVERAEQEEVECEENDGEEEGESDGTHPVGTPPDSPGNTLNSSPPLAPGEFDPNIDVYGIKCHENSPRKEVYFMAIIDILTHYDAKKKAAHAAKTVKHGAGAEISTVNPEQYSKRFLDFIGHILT
The experiment in a line: Co-immunoprecipitation in Cos-7 cells with Myc-PIPKII α. The conditions noted are these: overexpressing Cos-7 cells. The method, then: (A and B) IRBIT was transfected into Cos-7 cells with Myc-tagged type II phosphatidylinositol phosphate kinase α, β or γ (PIPKII α, β or γ). After two days, cells were lysed in lysis buffer, followed by centrifugation (100,000×g, 30 min). The supernatants were incubated with 3 μg of anti-IRBIT antibody, rabbit IgG, mouse anti-Myc antibody, or mouse IgG for 1 h at 4° C. After adding 5 μl of Protein G beads and another 1-h incubation, the beads were washed five times with lysis buffer and analyzed by Western blotting with anti-IRBIT antibody or HRP conjugated anti-Myc antibody. Immunoprecipitation of Myc-PIPKII α, β or γ with anti-Myc antibody co-precipitated IRBIT (A). In the reciprocal experiments, immunoprecipitation of IRBIT with anti-IRBIT antibody precipitated Myc-PIPKII α, β or γ.
IRBIT was transfected into Cos-7 cells with Myc-tagged type II phosphatidylinositol phosphate kinase α, β or γ (PIPKII α, β or γ). After two days, cells were lysed in lysis buffer, followed by centrifugation (100,000×g, 30 min). The supernatants were incubated with 3 μg of anti-IRBIT antibody, rabbit IgG, mouse anti-Myc antibody, or mouse IgG for 1 h at 4° C. After adding 5 μl of Protein G beads and another 1-h incubation, the beads were washed five times with lysis buffer and analyzed by Western blotting with anti-IRBIT antibody or HRP conjugated anti-Myc antibody.

For assay [2], the target named is T2, GST-EL (mouse IP3R1 amino acids 1-2217) (Mus musculus, UniProt P11881, N1264K).
T2 construct: construct a GST-IP3R1 (1-2217) vector (termed GST-EL); made in house; host or cells: Sf9 cells (baculovirus)
T2 sequence (P11881 1-2217 N1264K): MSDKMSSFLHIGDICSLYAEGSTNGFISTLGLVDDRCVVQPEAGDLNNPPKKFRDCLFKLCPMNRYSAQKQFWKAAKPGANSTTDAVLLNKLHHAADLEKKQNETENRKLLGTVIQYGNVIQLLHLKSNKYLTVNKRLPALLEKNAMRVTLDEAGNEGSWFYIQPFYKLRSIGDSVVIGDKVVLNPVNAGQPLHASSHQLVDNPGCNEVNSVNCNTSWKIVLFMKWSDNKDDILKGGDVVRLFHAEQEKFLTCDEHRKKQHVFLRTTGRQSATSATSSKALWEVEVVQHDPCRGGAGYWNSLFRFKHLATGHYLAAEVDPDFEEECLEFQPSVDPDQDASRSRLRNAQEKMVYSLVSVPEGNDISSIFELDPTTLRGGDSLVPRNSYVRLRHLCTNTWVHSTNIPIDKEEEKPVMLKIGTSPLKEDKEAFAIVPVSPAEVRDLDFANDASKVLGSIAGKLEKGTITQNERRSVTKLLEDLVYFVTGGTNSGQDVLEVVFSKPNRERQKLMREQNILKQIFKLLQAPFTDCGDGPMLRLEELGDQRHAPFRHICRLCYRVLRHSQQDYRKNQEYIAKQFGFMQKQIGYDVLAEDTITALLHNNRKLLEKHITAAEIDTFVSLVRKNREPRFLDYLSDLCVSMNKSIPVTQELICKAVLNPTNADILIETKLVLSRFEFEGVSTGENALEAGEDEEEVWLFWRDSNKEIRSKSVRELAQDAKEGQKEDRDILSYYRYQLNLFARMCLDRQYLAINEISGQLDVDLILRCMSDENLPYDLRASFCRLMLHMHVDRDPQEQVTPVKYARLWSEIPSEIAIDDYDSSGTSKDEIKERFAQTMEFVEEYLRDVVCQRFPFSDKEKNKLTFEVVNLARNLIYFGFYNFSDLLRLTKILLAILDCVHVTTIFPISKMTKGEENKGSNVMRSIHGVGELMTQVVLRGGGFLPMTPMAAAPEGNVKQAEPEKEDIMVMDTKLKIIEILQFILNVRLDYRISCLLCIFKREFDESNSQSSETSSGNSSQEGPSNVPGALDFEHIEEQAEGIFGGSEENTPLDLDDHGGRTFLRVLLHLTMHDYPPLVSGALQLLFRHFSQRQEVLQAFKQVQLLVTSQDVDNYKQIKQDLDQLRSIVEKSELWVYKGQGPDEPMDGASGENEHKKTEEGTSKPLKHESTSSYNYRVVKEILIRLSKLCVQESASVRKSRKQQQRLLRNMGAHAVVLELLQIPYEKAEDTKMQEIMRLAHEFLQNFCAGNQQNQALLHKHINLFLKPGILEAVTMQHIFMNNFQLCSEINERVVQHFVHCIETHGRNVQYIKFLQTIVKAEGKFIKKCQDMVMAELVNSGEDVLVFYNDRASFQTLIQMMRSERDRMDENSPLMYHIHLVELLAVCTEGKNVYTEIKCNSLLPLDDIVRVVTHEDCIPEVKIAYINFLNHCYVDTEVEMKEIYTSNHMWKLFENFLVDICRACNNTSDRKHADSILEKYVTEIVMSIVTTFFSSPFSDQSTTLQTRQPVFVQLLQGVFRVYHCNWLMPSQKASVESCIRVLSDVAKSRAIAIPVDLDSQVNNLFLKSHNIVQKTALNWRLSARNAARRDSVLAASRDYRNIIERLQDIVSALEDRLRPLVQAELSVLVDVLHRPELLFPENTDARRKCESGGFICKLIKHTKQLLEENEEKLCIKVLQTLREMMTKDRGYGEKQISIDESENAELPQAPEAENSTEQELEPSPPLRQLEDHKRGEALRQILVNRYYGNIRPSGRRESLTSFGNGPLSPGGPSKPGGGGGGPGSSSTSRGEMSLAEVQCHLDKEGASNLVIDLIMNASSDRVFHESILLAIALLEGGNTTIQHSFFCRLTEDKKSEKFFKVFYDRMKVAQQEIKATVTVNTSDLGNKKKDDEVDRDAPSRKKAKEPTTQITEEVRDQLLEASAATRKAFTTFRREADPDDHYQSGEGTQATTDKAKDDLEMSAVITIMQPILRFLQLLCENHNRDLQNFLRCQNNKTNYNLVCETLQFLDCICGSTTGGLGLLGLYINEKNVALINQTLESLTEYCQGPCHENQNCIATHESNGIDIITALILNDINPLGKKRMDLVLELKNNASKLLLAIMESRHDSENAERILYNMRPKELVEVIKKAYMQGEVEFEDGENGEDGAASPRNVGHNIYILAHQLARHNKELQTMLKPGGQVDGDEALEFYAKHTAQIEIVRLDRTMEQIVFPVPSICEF
In words: GST pulldown with GST-EL. The method, then: Mouse cerebellar cytosolic fraction was diluted 2-fold with 10 mM Hepes (pH 7.4), 200 mM NaCl, 2 mM EDTA, 1 mM 2-ME and 0.02% Triton X-100. The high salt extract was diluted 5-fold with 10 mM Hepes (pH 7.4), 2 mM EDTA, 1 mM 2-ME and 0.01% Triton X-100. The diluted fractions (the final NaCl concentration of both fractions was 100 mM) were incubated with 20 μg of GST-EL or GST for 2 hours at 4° C. After adding 10 μl of glutathione-Sepharose and another 2 hours of incubation, the resins were washed 5 times with a wash buffer (10 mM Hepes (pH 7.4), 100 mM NaCl, 2 mM EDTA, 1 mM 2-ME, and 0.01% Triton X-100), and bound proteins were eluted with 20 mM glutathione.
The eluted proteins were analyzed by Western blotting with anti-IRBIT antibody. For dephosphorylation, the diluted high salt extract was incubated in the presence of or the absence of Escherichia coli alkaline phosphatase (Toyobo) with 2 mM MgCl2 for 30 minutes at 37° C. 5 mM EDTA was added, and then the resultant was subjected to pulldown assay as described above.
For the determination of the IP3R1-interacting region of IRBIT, Cos-7 cells expressing GFP-tagged full-length IRBIT or its truncated mutants were lysed in a lysis buffer (10 mM Hepes (pH7.4), 100 mM NaCl, 2 mM EDTA, 1 mM 2-ME, 0.5% Nonidet P-40, and protease inhibitor) for 30 minutes at 4° C., followed by centrifugation (100,000×g, 30 minutes). The supernatants were subjected to pulldown assay with GST-EL or GST as described above, and bound proteins were subjected to immunoblot analysis with anti-GFP antibody (Medical & Biological Laboratories).

The target in assay [3] is T3, GST-Iab (mouse IP3R1 amino acids 1-343) (Mus musculus, UniProt P11881).
T3 construct: made in house; host or cells: Escherichia coli
T3 sequence (P11881 1-343): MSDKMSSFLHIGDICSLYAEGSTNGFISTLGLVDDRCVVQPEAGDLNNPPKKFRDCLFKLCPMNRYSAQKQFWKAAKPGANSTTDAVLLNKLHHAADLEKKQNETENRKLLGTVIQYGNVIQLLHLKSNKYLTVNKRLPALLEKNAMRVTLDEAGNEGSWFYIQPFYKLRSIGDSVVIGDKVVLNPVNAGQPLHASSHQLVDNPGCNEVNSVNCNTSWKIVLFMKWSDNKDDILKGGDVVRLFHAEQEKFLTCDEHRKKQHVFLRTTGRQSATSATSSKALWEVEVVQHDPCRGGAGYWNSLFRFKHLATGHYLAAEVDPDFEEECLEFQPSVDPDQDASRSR
The experiment in a line: GST pulldown with GST-Iab. The conditions noted are these: IRBIT in high salt extract. The text has this: The cDNAs encoding the full-length and N-terminal region (amino acids 1-104) of IRBIT were subcloned into the Escherichia coli hexahistidine (His) fusion vector pET-23a(+) (Novagen) to generate IRBIT-His and IRBIT(1-104)-His expression vectors, respectively. The same cDNAs were subcloned into the GST fusion vector pGEX-4T-1 (Amersham Pharmacia Biotech) to generate GST-IRBIT and GST-IRBIT(1-104) expression vectors, respectively. The cDNA fragments encoding the amino acids 1-225, 1-343, 341-923, 600-1248, 916-1581 and 1553-1943 of the amino acid sequence (SEQ ID NO: 7) of mouse IP3R1 were inserted into pGEX-KG to generate GST-Ia, GST-Iab, GST-IIab, GST-IIbIIIa, GST-IIIab and GST-IV expression vectors, respectively. The amino acids 1593-2217 of mouse IP3R1 were inserted into pGEX-4T-1 to obtain GST-IV-Va expression vector. These fusion proteins were expressed in Escherichia coli. GST-EL was expressed in Sf9 cells as described above. […]
For the determination of the IRBIT binding region and the critical amino acid residue of IP3R1, the diluted high salt extract was subjected to pulldown assay as described above with 100 pmol of GST, GST-EL, GST-Ia, GST-Iab, GST-IbIIa, GST-IIab, GST-IIbIIIa, GST-IIIab, GST-IV, GST-IV-Va, K508A or R441Q, and analyzed by Western blotting with anti-IRBIT antibody.

B1: IRBIT: novel IP3 receptor-binding protein of 530 amino acids, SEQ ID NO: 1 (protein, listed as Mus musculus)
chain: MSMPDAMPLPGVGEELKQAKEIEDAEKYSFMATVTKAPKKQIQFADDMQEFTKFPTKTGRRSLSRSISQSSTDSYSSAASYTDSSDDEVSPREKQQTNSKGSSNFCVKNIKQAEFGRREIEIAEQDMSALISLRKRAQGEKPLAGAKIVGCTHITAQTAVLIETLCALGAQCRWSACNIYSTQNEVAAALAEAGVAVFAWKGESEDDFWWCIDRCVNMDGWQANMILDDGGDLTHWVYKKYPNVFKKIRGIVEESVTGVHRLYQLSKAGKLCVPAMNVNDSVTKQKFDNLYCCRESILDGLKRTTDVMFGGKQVVVCGYGEVGKGCCAALKALGAIVYITEIDPICALQACMDGFRVVKLNEVIRQVDVVITCTGNKNVVTREHLDRMKNSCIVCNMGHSNTEIDVTSLRTPELTWERVRSQVDHVIWPDGKRVVLLAEGRLLNLSCSTVPTFVLSITATTQALALIELYNAPEGRYKQDVYLLPKKMDEYVASLHLPSFDAHLTELTDDQAKYLGLNKNGPFKPNYYRY
As for B1, in assay [1], the “interaction with PIPKII α” value is given as “interacted”. The “interaction with GST-EL” value in assay [2] (IRBIT in high salt extract of mouse cerebellar crude microsome) was “interacted with GST-EL”; in assay [2] (IRBIT in mouse cerebellar cytosolic fraction) it was “did not interact with GST-EL”; in assay [2] (high salt extract treated with alkaline phosphatase), “did not interact with GST-EL”. In addition, in assay [3], the “interaction with GST-Iab” value was “did not interact”.
